In a protein production outcome set (Wang et al. 2014):

Assay: label from the status in PepcDB records

Row | Sequence | protein production
1 | MDLKGGESMVDWKLMQEIIEAPGVSGYEHLGIRDIVVDVLKEVADEVKVDKLGNVIAHFKGSSPRIMVAAHMDKIGVMVNHIDKDGYLHIVPIGGVLPETLVAQRIRFFTEKGERYGVVGVLPPHLRRGQEDKGSKIDWDQIVVDVGASSKEEAEEMGFRVGTVGEFAPNFTRLNEHRFATPYLDDRICLYAMIEAARQLGDHEADIYIVGSVQEEVGLRGARVASYAINPEVGIAMDVTFAKQPHDKGKIVPELGKGPVMDVGPNINPKLRAFADEVAKKYEIPLQVEPSPRPTGTDANVMQINREGVATAVLSIPIRYMHSQVELADARDVDNTIKLAKALLEELKPMDFTP | not failed
2 | MDQCYFENSLSTECIIRSASRSDGCQMPKLFCQNLPPPLPPKKYAITSVPQSEKSESTPDVKLTEVFKATSHLPKHSLSTASEPSLEVSTHMNDERHKETFQVRECFGNTPNCPSSSSTNDFQANSGAIDAFCQPELDSISTCPNETVSLTTYFSVDSCMTDTYRLKYHQRPKLSFPESSGFCNNSLS | failed
3 | MALREMIIDESDDIESYSDQSLCLDKAKELLALIKLPTGLLPLKDMTEVGYNKTKGFVWMRMRSKIEHTFREIGRRVLYDTEITAFVEDRRMRRLTGVKSKELMIWVPVNDIFIKRKILRRSPLLIPPACHEHLKFQHFNVRVDKLKEKRSNQTSLM | failed
4 | MNSFKEGEYVLIRFGEKKFLRKLLPKQSLSVKKSVLKFDEVIGKPEGVKINGFEVYRPTLEEIILLGFERKTQIIYPKDSFYIALKLNLNKEKRVLEFGTGSGALLAVLSEVAGEVWTFEAVEEFYKTAQKNLKKFNLGKNVKFFNVDFKDAEVPEGIFHAAFVDVREPWHYLEKVHKSLMEGAPVGFLLPTANQVIKLLESIENYFGNLEVVEILHRHYKTISERFRPEDQMVAHTAYLVFGRKLKT | not failed
5 | MVLHVMLGEVVTKFLNMNNGVGEGGSQQRELHGKRKLFRGNDFAFSIARMAVAQICESVEVNPYQESQTREGVRFSSFQESALDTLTDVAVQYIQSIGKTAHLYANLAGRVDGNSLDILQALEDLGSGLGFAGVSDTDHCLADSGVVKDIIRYTGEAEEIPFVYSLPRFPFSKEKKPAPSFSEVGAEPPDEHIPVWLPAFPETELCDRSEETNAATIEGEIPSKENGSSLPSMQLSFDGGGRLEIHKSSKDVGESTEAVVEGNLFLTAPLRFVEKNVSPVVRPLELSNEVVRTNHVPDKHVRNNHHIPILEASAPSDKINNKNWLAISKDVEKVDVARKELTLVRFKIGTTKRSMCLAKNRSFQEEGWFQEGEDKREKTSEIKEKRERIDSQLSTQM | failed
6 | MIDCLVMAGGQGARMGFREKPLLSVCGQPMLLRVLSALRMACRRIAIVYSRHTPGVKRLCLSGALGAVECIEGPGSYVKDLRLGFSHISTPLLVAPADMPFLNPHHLNLFIDRALADGASIVNLSLRGRGLTGLSVFKHHRGWWRDVETNGCWALDVDTWEDFRRAGELCGGECTGEGLRLELLEHHHHHH | failed
7 | MANYYEPPASGNRRDAVKGYNSGSFDDSAGDQSQTNDYQLKIKKSKSVPNADRAASRSWSFSDPESRRKRRVAGYKVYSVEQKMKGSIRKSFKWFKDIIGIS | failed
8 | MSTKTVHYPWFKKEDIDAFFALFQNNLANFVIIAVTMIGLGFPASLVFGKVIPGVAVAVIVGNLYYAYMANRLAQKESRSDVTALSYGISTPVMFVFLFGILAPALALTGDPELAWKIGLAAAFLSGFIELLVSFTGNWVRKHLPRPAMLGALAGVAVTFIAGEMLFQVFSIPVVGLVALAIILLGVVGKVTLPFNIPPSLCAVIIGTVLAFVLGYQSANTLQDSLANIGLYPILPSLGAFEGFGYLFGPLVGLLAILLPITIYNAIETMNNVDAMAAAGDSYDVRECQAVDGVGTMIGAVFGGLFPTTVYIATVGSKWMGAGRGYSILNALVFAITAVTGVIAALSELIPLAAVAPILVFVGMSMVVTAFDPNDRKYYPAVALAMLPYVANYVMTRFNNNAGEVVQGISEGIVPLGQGAMFTAIILGAIAVCIIDKQFIKAAVFSLIGAGLSFAGFMHAPELSFNAAPDYSLGYLCIAILFSYCAFRKTSKEAVASPSTLSSKRVAS | failed
9 | MDNITNESDNLIQIFSHNPLALISCIILGIGLLFTFASRQFILVRVLLGNVSFIKQRILGVIFGIVGALLLLFATGNLNL | failed
10 | MPKKYDEATKSKAVRLVVDHRDEYDSEYGCIRAVATRIGVGPETLRKWVRQAEIDGGERDGVTTATNRENRELKRKVAELEQTVEMLRAATTFFVRESDPRHR | failed
11 | FETRAKGRSGEALRSLLNLGAKDAAIIRDNREVRIPIQSLQVGDVFVVRPGEKIATDGVVVEGTSAVDQSMITGESVPVEVAQGSHVTGATMNTSGRLLVTAQRVGADTTLAAMGRLVAEAQSNKAPVQKLVDKISQ | failed
12 | MGAFNRRNKRVNNGNVTHLRPFRRNQLRNDNAYDPDEHDLEYVRPRRRGIYLLPNAFTTAALFAGFFAIVQAMNMRFDVAAIAIFAAMVLDGMDGRVARITNTQSAFGEQYDSLSDMTSFGVAPALVMYEWILHDLGKWGWIAAFVYCTCAALRLARFNANIGVVDKRFFQGLPSPAAAALVAGFVWLAIDNKLPVKELWMPWVAFGITLYAGLSMVSNAPFYSGKALDVRYRVPFGMMVLVLVLFVVVSSDPPVALFGLFVAYAISGYLLWAWRTLHGQRGGVDKSRAPGNGSGGN | failed
13 | MRWNCSACWASSASANAGRRRHFDTSLWRASCSGYGARARQIQAAWIRADTPESTRVPATRRIRLLNPVVPVRSLSACRHLTRSRPPLRSFTMPHVVARSGDVMSSAAPPSCTSLLGLSLSMFVAPCTLTAAPLDTPVVNAPAPTPPTPDQAYPELFQAVQSGELFDDQKHFVDFLPLRDPALINADYLAQHDHPGFDLRKFVDANFEESPPVQTDAIRQDTALREHIDLLWPKLVRSQNHVPPYSSLLSLPHPYVVPGGRFREVYYWDSYFTMLGLVKSGQTTLSRQMLDNFAYLIDTYGHIPNGNRSYYLSRSQPPFFSYMVELQAGVEGQAVYQRYLPQLQKEYAYWMQGSDDVQPGQAARHVVRLADGSVLNRYWDERDTPRPEAWLHDTRTAAEVKDRPAAEVYRDLRAGAESGWDYTSRWLADGQNLRTIRTTAIIPIDLNSLLYHLERTLAQACAQPGAACSRDYAALAQQRKQAIDAHLWNKAGYYADYDWQTRTLSDQITAAALYPLFAGLASDDHAKRTASTVRRTLVRPGGLATTAVKTGQQWDEPNGWAPLQWVAVDGLRRYGEQALARTIGERFLAQVQALFAREHKLVEKYGLETNAAGGGGGEYALQDGFGWTNGVTLMLLNLYPGKGAKAAPAKRVRKTEAAAR | failed
14 | MATAAASVVSSETGDLRAYMAANPAAVIEEVAKQWNVSPHAVIAALPDGMARLGPGDGFVAAMNDIATWGEVTLIVHTEDAIFEFTGEVPRGEISRGYFNLMQPKGLHGHLRHDRCGALAFVERPFMGKASAFVAFLNRDGGIMFKVFVGRDANRELRADQLARFHALAKQFSEEHSALEHHHHHH | failed
15 | MSLEDHAEELASDLGVDKEEVTRDLENLVNYSVPMDEAKQSLRRKYGDGSSGGDSTPSSKAINEVSTEDSNVTVTAVVLTSGRRSIQYNGEQHVIREGELADETGKISYTAWDGFSGDLQPGQTVQLGNAGVREWDGQPELNLGDSTDPEVVDETLDIDYDVGGRAALQDLAPGDRGITVEVQVLECEQKVIDGRDGETTILSGVLGDESGRLPFTDWDPHDEIEEGASVRLDETFVREFRGAPSVNVSEFSAVTALDRTVGVTEDAPRLSVREAVESGGLFDVELAGNVIEVRDGSGLIERCPECGRVIQNGQCRSHGAVEGEDDLRTKAILDDGTDTVTAVLDDELTARVYGGDLDDAREHARDAMDKEVVAERISDRIVGREYVVRGSLSVDEYGANLTASTFAEADDDPATRAQALLQEADTLEHHHHHH | not failed
16 | MSEVSVLLLAVILDLLIGEPPHRLHPVVWMGSAVEWMRNILGNSRISGIILTIAVAAPFTLPLFLINHLQDPLNLIISSILLSAVISIRMLVTSALEVGGSLKEDIEDARRKLSMLVSRDTTSLSDEQITSAAIETLTENITDSVTAPIFYFILLGLPGAFLYRVVNTLDAMVGYLDSENRDIGWFPARLDDILNYIPSRITGVLMVPAALLLGMNWRGSFRILLRDARRTPSPNSGFTMAAAAGALSVQLEKPGVYVLGDPCDGLDNEKLLDAVKLSSLTLILFTLAAAGVMLVIP | failed
17 | MLTLEIFRALLLGFTIGLTGALVPGPMLFATIELSLKKGWLAGPEVVFGHILVELVLSILILFGVASFIGSGAISAVSIIGGFSLTVFGLLTVKDAKTTASAGLSPETSGLKLTSNPVALGLITSVSNPYFWIWWLTAGSALVLKAYELGIIISIAYILGHWTADLSWFTAISGSFSRGKTLFSQQTHRYILYACGTFLIFFGLYFMFNYKGAAQLF | failed
18 | MADALKIGIAGLGTVGASLVRIIQQKSNELAVTCGRPITITAVSARDKTRDRGVDLSAVAWFDRPEDLAEKGDIDVFVELMGGAEGAANVSVRAALQRGLHVVTANKALLAYHGVELATIAEEKGSLLNFEAAVAGGIPVIKALRESLTGNAVSRIYGIMNGTCNYILTKMEKEGLSFAECLKEAQRLGYAEADPAFDIEGNDTAHKLAILTTLAFGNRIAADDIYLEGITNISIEDIHAAAELGYRIKLLGVAQRTETGIEQRVHPTMVPVDSVIAQVDGITNAVAIESDVLGELLMVGPGAGGNATASSVLGDIADIAKSQPGAQRVPVLGHPAKALEPYRKAQMQSHEGGYFIRLTVLDRTGVFASVATRMAENHISLESIVQRSTQHLAPSHHQTIILVTHATMEESVRKAVASIRSEGYLFGEPQVIRIERPKEEA | failed
19 | KKYVDNLKETISRVEVSRDNFLTILNSLSEPIFILDREGKITFLNEIARELVQGRINPEGRPYYEIFEDYYINEMVEETIKSEEPQEGTLVTYVGNEKKYFHVKVIPVELKSGDKIFVILFHDVTKERKLDEMRREFIATVSHEL | failed
20 | MPTTRKENLQFGMMMCLGMVIVMTFYNLLMNETGGPIYIKEIALELLIGFIIALLIEISIVGPCAKKIVFMLPFDKSKKINIIVAMATTMVIGMVFFMSFFGMAMMHLHGGLQGASFVSIYFSIFIKNFIMAYPLQLIIMGPLVRFLFAKFVMKKKSFNVA | failed
21 | MRLRNWPRWQRWLNRRIPPASSVELNQRRVFILPTRQGGAFGLALLVMLLAAINYQNSLAYGLTFLLLSLGVVTILHTYRNLAGLRLTALGADPVFAGERAGFRVRLESPRRARQAIAVGWPERPLEYADLAGDAAAEVLLFHPTERRGWLRPGRLRVESRFPLGLLVAWSWVDLRQQALVYPRPQAGEPLLAPGAEDAEDQGRALASAGVDDYQGLRAYQPGDSRRRLHWKAFSRGQGLLVKDFAALGGEDLWLEFERLGGDLESRLGRLCHAVLELSARQQPYGLALPGTRLQPASGEAQREACLRALALFGAAR | failed
22 | MDMSLHFLSQGDLSGVWGRVYWRRRAGFKAIKIQSAFKAYLARKALWAGKCNGWDSSALTKEDIKAIWLRKQEGLKELFLQERRSPHMLEDSLSTPRQRVGLMDSLFVNYKKDGDKVSLWTSFVCENSKINNAKKSSLTTYQHNC | not failed
23 | MSLGFVTAAYIIAALLFIMSLAGLSKHETAKAGCWYGISGMAIALFATIFGPQSYGTIWILIAMAIGGYIGIQKALKVEMTAMPELVAILHSFVGLAAVLVGFNSYGLHNDPLIPSNLDAVARANFIVEQQTLATIHYIEVFLGIFIGAVTFSGSLIAFGKLSGNLFGCKVSSVALNLPNKHKLNLAALIISGLLMMVFLNNPVNIFPVLIMTIIALALGWHLVASIGGADMPVVVSMLNSYSGWAAAAAGFMLSNDLLIVTGALVGSSGAILSYIMCKAMNRSFISVIAGGFGNEMKADSAAEQAQGEHRETTVEDVAEMLKNAHSVIITPGYGMAVAQAQYPVAEITAKLREKGINVRFGIHPVAGRLPGHMNVLLAEAKVPYDVVLEMDEINDDFENTDVVLVIGANDTVNPAALDDPSSPIAGMPVLEVWKAQNVVVFKRSMAVGYAGVQNPLFFKENTQMLFGDAKERVDDILRALN | failed
